Measured values from patent US20260151494A1 (ARO BIOTHERAPEUTICS, published 2026).

B1: CD71-binding FN3 domain of SEQ ID NO: 546 (designed binder)
chain: MLPAPKNLVVSRVTEDSARLSWTAPDAAFDSFEIAYIEVNIQGEAIVLTVPGSERSYDLTGLKPGTEYYVHIGGVKGGPSSSPLSAIFTT
B2: CD71-binding FN3 domain of SEQ ID NO: 551 (designed binder)
chain: MLPAPKNLVVSRVTEDSARLSWTAPDAAFDSFEIAYFETCRTGEAIVLTVPGSERSYDLTGLKPGTEYWVQIGGVKGGNWSAPLSAIFTT
B3: CD71-binding FN3 domain of SEQ ID NO: 337 (designed binder)
chain: MSLPAPKNLVVSRVTEDSARLSWTAPDAAFDSFFIGYLEPQPPGEAIHLYVPGSERSYDLTGLKPGTEYNVTIQGVKGGFPSIPLIASFTT
notes: not shown: C-terminal poly-histidine tag added to each FN3 domain
B4: CD71-binding FN3 domain of SEQ ID NO: 343 (designed binder)
chain: MSLPAPKNLVVSRVTEDSARLSWTAPDAAFDSFFIGYLEPQPPGEAIALWVPGSERSYDLTGLKPGTEYNVTIQGVKGGFPSEPLVATFTT
notes: as for B3
B5: CD71-binding FN3 domain of SEQ ID NO: 341 (designed binder)
chain: MSLPAPKNLVVSRVTEDSARLSWTAPDAAFDSFFIGYLEPQPPGEAIELYVPGSERSYDLTGLKPGTEYNVTIQGVKGGFPSLPLVAIFTT
notes: as for B3
B6: CD71-binding FN3 domain of SEQ ID NO: 342 (designed binder)
chain: MSLPAPKNLVVSRVTEDSARLSWTAPDAAFDSFFIGYLEPQPPGEAIVLTVPGSERSYDLTGLKPGTEYNVTIQGVKGGFPSEPLIANFTT
notes: as for B3
B7: CD71-binding FN3 domain of SEQ ID NO: 340 (designed binder)
chain: MSLPAPKNLVVSRVTEDSSRLSWTAPDAAFDSFEIGYFENLYLGEAIVLTVPGSERSYDLTGLKPGTEYWVQIGGVKGGNWSAPLSAIFTT
notes: as for B3
B8: CD71-binding FN3 domain of SEQ ID NO: 344 (designed binder)
chain: MSLPAPKNLFVSRVTEDSARLSWTAPDAAFDSFEIGYWENAYKGEAIVLTVPGSERSYDLTGLKPGTEYWVQIGGVKGGNWSAPLSAIFTT
notes: as for B3
B9: CD71-binding FN3 domain of SEQ ID NO: 345 (designed binder)
chain: MSLPAPKNLVVSRVTEDSAHLSWTAPDAAFDSFEIGYFENDYFGEAIVLTVPGSERSYDLTGLKPGTEYVVFIGGVKGGKWSAPLSAIFTT
notes: as for B3
B10: CD71-binding FN3 domain of SEQ ID NO: 339 (designed binder)
chain: MSLPAPKNLVVSRVTEDSARLSWTAPDAAFDSFEIGYWEMSYYGEAIVLTVPGSERSYDLTGLKPGTEYGVSIGGVKGGRWSLPLSAIFTT
notes: as for B3
B11: CD71-binding FN3 domain of SEQ ID NO: 338 (designed binder)
chain: MSLPAPKNLVVSRVTEDSARLSWTAPDAAFDSFEIGYFENLYLGEAIVLTVPGSERSYDLTGLKPGTEYCVYICGVKGGRDSMPLSAIFTT
notes: as for B3
B12: CD71-binding FN3 domain of SEQ ID NO: 336 (designed binder)
chain: MSLPAPKNLVVSRVTEDSARLSWTAPDAAFDSFNIMYHEHYDNGEAIVLTVPGSERSYDLTGLKPGTEYSVVINGVKGGPHSAPLSAIFTT
notes: as for B3
B13: CD71-binding FN3 domain of SEQ ID NO: 373 conjugated to KRAS2 siRNA (designed binder)
chain: MLPAPKNLVVSRVTEDSARLSWTAPDAAFDSFFIGYLEPQPPGEAISLFVPGSERSYDLTGLKPGTEYNVTIQGVKGGFPSDPLVASFTT
modifications: conjugated to KRAS2 tool siRNA; site and linker not stated
B14: CD71-binding FN3 domain of SEQ ID NO: 496 conjugated to KRAS2 siRNA (designed binder)
chain: MLPAPKNLVVSRVTEDSARLSWTAPDAAFDSFFIGYLEPQPPGEAIILWVPGSERSYDLTGLKPGTEYNVTIQGVKGGFPSVPLIAQFTT
modifications: conjugated to KRAS2 tool siRNA; site and linker not stated
B15: CD71-binding FN3 domain of SEQ ID NO: 476 conjugated to KRAS2 siRNA (designed binder)
chain: MLPAPKNLVVSRVTEDSARLSWTAPDAAFDSFFIGYLEPQPPGEAIHLQVPGSERSYDLTGLKPGTEYNVTIQGVKGGFPSIPLIAVFTT
modifications: conjugated to KRAS2 tool siRNA; site and linker not stated
B16: CD71-binding FN3 domain of SEQ ID NO: 400 conjugated to KRAS2 siRNA (designed binder)
chain: MLPAPKNLVVSRVTEDSARLSWTAPDAAFDSFFIGYLEPQPPGEAIHLFVPGSERSYDLTGLKPGTEYNVTIQGVKGGFPSGPLHATFTT
modifications: conjugated to KRAS2 tool siRNA; site and linker not stated
B17: CD71-binding FN3 domain of SEQ ID NO: 529 conjugated to KRAS2 siRNA (designed binder)
chain: MLPAPKNLVVSRVTEDSARLSWTAPDAAFDSFFIGYLEPQPPGEAIDLYVPGSERSYDLTGLKPGTEYNVTIQGVKGGFPSLPLQAHFTT
modifications: conjugated to KRAS2 tool siRNA; site and linker not stated
B18: CD71-binding FN3 domain of SEQ ID NO: 472 conjugated to KRAS2 siRNA (designed binder)
chain: MLPAPKNLVVSRVTEDSARLSWTAPDAAFDSFFIGYLEPQPPGEAIELYVPGSERSYDLTGLKPGTEYNVTIQGVKGGFPSLPLVATFTT
modifications: conjugated to KRAS2 tool siRNA; site and linker not stated
B19: CD71-binding FN3 domain of SEQ ID NO: 552 (designed binder)
chain: MLPAPKNLVVSRVTEDSARLSWTAPDAAFDSFFIGYLEPQPPGEAIHLFVPGSERSYDLTGLKPGTEYNVTIQGVKGGFPSMPLSAIFTT
B20: CD71-binding FN3 domain of SEQ ID NO: 516 conjugated to KRAS2 siRNA (designed binder)
chain: MLPAPKNLVVSRVTEDSARLSWTAPDAAFDSFFIGYLEPQPPGEAISLWVPGSERSYDLTGLKPGTEYNVTIQGVKGGFPSSPLVAYFTT
modifications: conjugated to KRAS2 tool siRNA; site and linker not stated
B21: CD71-binding FN3 domain of SEQ ID NO: 508 conjugated to KRAS2 siRNA (designed binder)
chain: MLPAPKNLVVSRVTEDSARLSWTAPDAAFDSFFIGYLEPQPPGEAITLSVPGSERSYDLTGLKPGTEYNVTIQGVKGGFPSEPLIAIFTT
modifications: conjugated to KRAS2 tool siRNA; site and linker not stated
B22: CD71-binding FN3 domain of SEQ ID NO: 447 conjugated to KRAS2 siRNA (designed binder)
chain: MLPAPKNLVVSRVTEDSARLSWTAPDAAFDSFFIGYLEPQPPGEAIYLYVPGSERSYDLTGLKPGTEYNVTIQGVKGGFPSYPLTAQFTT
modifications: conjugated to KRAS2 tool siRNA; site and linker not stated
B23: CD71-binding FN3 domain of SEQ ID NO: 478 conjugated to KRAS2 siRNA (designed binder)
chain: MLPAPKNLVVSRVTEDSARLSWTAPDAAFDSFFIGYLEPQPPGEAIHLYVPGSERSYDLTGLKPGTEYNVTIQGVKGGFPSVPLIAKFTT
modifications: conjugated to KRAS2 tool siRNA; site and linker not stated
B24: CD71-binding FN3 domain of SEQ ID NO: 549 (designed binder)
chain: MLPAPKNLVVSRVTEDSARLSWTAPDAAFDSFFIGYLEPQPPGEAISLWVPGSERSYDLTGLKPGTEYNVTIQGVKGGFPSMPLSAIFTT
B25: CD71-binding FN3 domain of SEQ ID NO: 547 (designed binder)
chain: MLPAPKNLVVSRVTEDSARLSWTAPDAAFDSFFIGYLEPQPPGEAIHLIVPGSERSYDLTGLKPGTEYNVTIQGVKGGFPSDPLVASFTT
B26: CD71-binding FN3 domain of SEQ ID NO: 550 (designed binder)
chain: MLPAPKNLVVSRVTEDSARLSWTAPDAAFDSFFIGYLEPQPPGEAIHLFVPGSERSYDLTGLKPGTEYNVTIQGVKGGFPSIPLYARFTT
B27: CD71-binding FN3 domain of SEQ ID NO: 548 (designed binder)
chain: MLPAPKNLVVSRVTEDSARLSWTAPDAAFDSFFIGYLEPQPPGEAIYLFVPGSERSYDLTGLKPGTEYNVTIQGVKGGFPSMPLSAIFTT

Key:
[1] = biological target: T1, human CD71 extracellular domain (human, UniProt P02786 89-760); test: primary ELISA screen, Screen 4, luminescence; also: test concentration or dose not given here
T1 construct: also called hCD71; CD71-ECD

[2] = biological target: T2, apical domain of human CD71 (human, UniProt P02786 189-383, limits assumed); test: primary ELISA screen, Screen 4, luminescence; also: test concentration or dose not given here
T2 construct: domain: apical domain; Screen 4 panned against human apical domains; also called human apical domain

[3] = biological target: T2, apical domain of human CD71; test: primary ELISA screen, Screen 4; signal on apical domain over signal on HSA
[4] = biological target: T1, human CD71 extracellular domain; test: primary ELISA screen, Screen 4; signal on hCD71 over signal on HSA
[5] = biological target: T3, human CD71 extracellular domain (human, UniProt P02786 89-760); test: primary ELISA screen, RLU on human CD71-ECD over RLU on HSA
T3 construct: also called hCD71; human CD71-ECD

[6] = biological target: T3, human CD71 extracellular domain; test: primary ELISA screen, human CD71-ECD; also: test concentration or dose not given here
[7] = biological target: T4, apical domain of CD71 (Screen 3: 'cynomolgus apical domain of human CD71') (cynomolgus (as 'cynomolgus apical …)); test: primary ELISA screen, RLU on apical domain over RLU on HSA
T4 construct: domain: apical domain; Species is told ambiguously

[8] = biological target: T4, apical domain of CD71 (Screen 3: …); test: primary ELISA screen, apical domain of CD71; also: test concentration or dose not given here
[9] = biological target: human CD71 on cells (SKBR3; SW620-rLuc-KRAS) (human, UniProt P02786 1-760); test: cell-based or functional assay
human CD71 on cells (SKBR3; SW620-rLuc-KRAS), sequence (P02786 whole entry): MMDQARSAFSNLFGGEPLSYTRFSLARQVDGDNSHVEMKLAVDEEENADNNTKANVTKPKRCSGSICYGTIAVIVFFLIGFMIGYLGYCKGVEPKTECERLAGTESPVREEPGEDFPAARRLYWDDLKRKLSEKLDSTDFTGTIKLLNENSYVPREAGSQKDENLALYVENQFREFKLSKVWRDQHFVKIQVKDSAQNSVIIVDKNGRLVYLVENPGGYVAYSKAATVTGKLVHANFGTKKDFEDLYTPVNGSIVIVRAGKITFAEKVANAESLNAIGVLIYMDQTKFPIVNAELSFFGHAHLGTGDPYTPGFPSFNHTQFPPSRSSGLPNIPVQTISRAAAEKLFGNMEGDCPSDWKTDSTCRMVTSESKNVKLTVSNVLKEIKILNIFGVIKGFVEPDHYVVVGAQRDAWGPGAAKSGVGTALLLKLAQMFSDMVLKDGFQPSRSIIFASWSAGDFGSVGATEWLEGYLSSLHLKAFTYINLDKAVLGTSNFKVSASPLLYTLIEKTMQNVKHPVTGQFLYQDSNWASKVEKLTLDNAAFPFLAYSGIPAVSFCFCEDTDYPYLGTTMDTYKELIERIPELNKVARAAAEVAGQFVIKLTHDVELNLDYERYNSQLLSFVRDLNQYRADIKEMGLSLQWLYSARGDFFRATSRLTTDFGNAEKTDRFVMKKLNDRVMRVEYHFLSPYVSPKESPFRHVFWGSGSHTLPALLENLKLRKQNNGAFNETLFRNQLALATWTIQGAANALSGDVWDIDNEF

T2 sequence (P02786 189-383 limits assumed): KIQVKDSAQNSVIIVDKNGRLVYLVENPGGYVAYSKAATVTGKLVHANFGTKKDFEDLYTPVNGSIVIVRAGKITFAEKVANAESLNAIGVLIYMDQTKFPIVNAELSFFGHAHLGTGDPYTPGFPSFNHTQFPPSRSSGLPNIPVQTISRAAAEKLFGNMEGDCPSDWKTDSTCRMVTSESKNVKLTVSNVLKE

Row | Binder | hCD71:HSA [5] [ratio] | RLU [6] [RLU] | Apical domain:HSA [7] [ratio] | RLU [8] [RLU] | LSA EC50 (luciferase reporter assay, SW620-rLuc-KRAS cells, 72 h) [9] [nM] | also measured
1 | B1 | – | – | – | – | – | hCD71, RLU [1]: 3.53e+06 RLU; Apical domain, RLU [2]: 4.4e+06 RLU; Apical domain:HSA [3]: 466 ratio; hCD71:HSA [4]: 374 ratio
2 | B2 | – | – | – | – | – | hCD71, RLU [1]: 1.17e+06 RLU; Apical domain, RLU [2]: 4.07e+06 RLU; Apical domain:HSA [3]: 158 ratio; hCD71:HSA [4]: 45 ratio
3 | B3 | 307 | 5.28e+06 | 385 | 6.62e+06 | – | –
4 | B4 | 172 | 5.25e+06 | 178 | 5.42e+06 | – | –
5 | B5 | 92 | 5.35e+06 | 92 | 5.31e+06 | – | –
6 | B6 | 10 | 4.44e+06 | 13 | 5.41e+06 | – | –
7 | B7 | 106 | 3e+06 | 180 | 5.1e+06 | – | –
8 | B8 | 36 | 1.33e+06 | 92 | 3.4e+06 | – | –
9 | B9 | 108 | 2.55e+06 | 195 | 4.59e+06 | – | –
10 | B10 | 303 | 2.14e+06 | 690 | 4.86e+06 | – | –
11 | B11 | 57 | 2.29e+06 | 125 | 5.02e+06 | – | –
12 | B12 | 68 | 1.15e+06 | 256 | 4.31e+06 | – | –
13 | B13 | – | – | – | – | 0.15 | –
14 | B14 | – | – | – | – | 0.22 | –
15 | B15 | – | – | – | – | 0.31 | –
16 | B16 | – | – | – | – | 0.24 | –
17 | B17 | – | – | – | – | 0.52 | –
18 | B18 | – | – | – | – | 0.15 | –
19 | B19 | – | – | – | – | – | hCD71, RLU [1]: 4.95e+06 RLU; Apical domain, RLU [2]: 5.7e+06 RLU; Apical domain:HSA [3]: 137 ratio; hCD71:HSA [4]: 119 ratio
20 | B20 | – | – | – | – | 0.6 | –
21 | B21 | – | – | – | – | 0.6 | –
22 | B22 | – | – | – | – | 0.53 | –
23 | B23 | – | – | – | – | 0.21 | –
24 | B24 | – | – | – | – | – | hCD71, RLU [1]: 2.86e+06 RLU; Apical domain, RLU [2]: 3.49e+06 RLU; Apical domain:HSA [3]: 242 ratio; hCD71:HSA [4]: 198 ratio
25 | B25 | – | – | – | – | – | hCD71, RLU [1]: 4.59e+06 RLU; Apical domain, RLU [2]: 5.35e+06 RLU; Apical domain:HSA [3]: 322 ratio; hCD71:HSA [4]: 277 ratio
26 | B26 | – | – | – | – | – | hCD71, RLU [1]: 4.79e+06 RLU; Apical domain, RLU [2]: 5.8e+06 RLU; Apical domain:HSA [3]: 170 ratio; hCD71:HSA [4]: 141 ratio
27 | B27 | – | – | – | – | – | hCD71, RLU [1]: 4.73e+06 RLU; Apical domain, RLU [2]: 5.29e+06 RLU; Apical domain:HSA [3]: 257 ratio; hCD71:HSA [4]: 230 ratio
